Reference: the Immune Epitope Database (IEDB)
Blank lines part the entries; values can stand above or below the sequence they belong to.

Experiments:
HLA-C*14:02 = assay: IEDB peptide-MHC binding, purified MHC/direct/fluorescence; filed as Kd, often an IC50 or EC50 that approximates it; ≥ and ≤ were set here for values at or beyond the usual limits of such assays
HLA-B*07:02 = assay: as above
HLA-A*02:01 = assay: as above
HLA-A*31:01 = assay: as above
HLA-A*03:01 = assay: as above
HLA-B*15:01 = assay: as above
HLA-A*01:01 = assay: as above
HLA-B*08:01 [1] = assay: as above
HLA-A*69:01 = assay: as above
HLA-A*11:01 = assay: as above
HLA-B*08:02 = assay: as above
HLA-B*58:01 = assay: as above
HLA-B*46:01 = assay: as above
HLA-A*24:02 = assay: as above
HLA-B*27:05 = assay: as above
HLA-B*08:01 [2] = assay: IEDB peptide-MHC binding, purified MHC/competitive/fluorescence; filed as Kd, often an IC50 or EC50 that approximates it; ≥ and ≤ were set here for values at or beyond the usual limits of such assays; conditions: source organism: Influenza A virus (A/parakeet/Narita/92A/98(H9N2))
HLA-B*40:01 = assay: IEDB peptide-MHC binding, purified MHC/direct/fluorescence; filed as Kd, often an IC50 or EC50 that approximates it; ≥ and ≤ were set here for values at or beyond the usual limits of such assays
HLA-B*44:02 = assay: as above
HLA-B*18:01 = assay: as above
HLA-A*26:01 = assay: as above; conditions: source organism: Brucella suis 1330
[3] = source organism: Mycobacterium tuberculosis variant bovis BCG str. Pasteur 1173P2
[4] = source organism: Influenza A virus (A/Duck/Shantou/2088/01(H9N2))
[5] = source organism: Escherichia coli O157:H7
[6] = source organism: Brucella abortus
[7] = source organism: Brucella suis 1330

Sequence: APINSATAM
- Kd (HLA-C*14:02; [3]): 0.321 µM

Sequence: APPPFRLPL
- Kd (HLA-B*07:02; [3]): 0.0775 µM
- Kd (HLA-C*14:02; source organism: Mycobacterium tuberculosis H37Rv): 0.714 µM

Sequence: EEMATKADY
- Kd (HLA-A*02:01; [4]): ≥ 20 µM
- Kd (HLA-A*31:01; [4]): ≥ 20 µM
- Kd (HLA-A*03:01; [4]): ≥ 20 µM
- Kd (HLA-B*07:02; [4]): ≥ 20 µM
- Kd (HLA-B*15:01; source organism: Influenza A virus (A/Puerto Rico/8/34/Mount Sinai(H1N1))): 1.46 µM
- Kd (HLA-A*01:01; [4]): ≥ 20 µM
- Kd (HLA-B*08:01 [1]; [4]): ≥ 20 µM
- Kd (HLA-A*69:01; [4]): ≥ 20 µM
- Kd (HLA-A*11:01; [4]): ≥ 20 µM
- Kd (HLA-B*08:02; source organism: Influenza A virus (A/Taiwan/2/2006(H1N1))): ≥ 20 µM
- Kd (HLA-B*58:01; [4]): ≥ 20 µM
- Kd (HLA-B*46:01; [4]): ≥ 20 µM
- Kd (HLA-A*24:02; [4]): ≥ 20 µM
- Kd (HLA-B*27:05; [4]): ≥ 20 µM

Sequence: EYIWRSLKI
- Kd (HLA-A*24:02; source organism: Entamoeba histolytica): ≤ 0.001 µM

Sequence: FDERRNRYL
- Kd (HLA-B*08:01 [2]): ≥ 20 µM

- Kd (HLA-A*02:01; [5]): ≥ 20 µM
- Kd (HLA-A*31:01; [5]): ≥ 20 µM
- Kd (HLA-A*03:01; [5]): ≥ 20 µM
- Kd (HLA-B*40:01; [5]): ≥ 20 µM
- Kd (HLA-B*07:02; [5]): 0.376 µM
- Kd (HLA-B*15:01; [5]): ≥ 20 µM
- Kd (HLA-A*01:01; [5]): ≥ 20 µM
- Kd (HLA-B*44:02; [5]): ≥ 20 µM
- Kd (HLA-A*69:01; [5]): ≥ 20 µM
- Kd (HLA-B*18:01; [5]): ≥ 20 µM
- Kd (HLA-A*11:01; [5]): ≥ 20 µM
- Kd (HLA-B*58:01; [5]): ≥ 20 µM
- Kd (HLA-B*46:01; [5]): ≥ 20 µM
- Kd (HLA-A*24:02; [5]): ≥ 20 µM
- Kd (HLA-B*27:05; [5]): ≥ 20 µM
Sequence: LPPERRQPF

Sequence: LTDAFHGYH
- Kd (HLA-A*26:01): ≥ 20 µM
- Kd (HLA-A*02:01; [6]): ≥ 20 µM
- Kd (HLA-A*03:01; [6]): ≥ 20 µM
- Kd (HLA-B*40:01; [6]): ≥ 20 µM
- Kd (HLA-B*07:02; [6]): ≥ 20 µM
- Kd (HLA-B*15:01; [6]): ≥ 20 µM
- Kd (HLA-A*01:01; [6]): 0.0754 µM
- Kd (HLA-B*08:01 [1]; [7]): ≥ 20 µM
- Kd (HLA-B*44:02; [6]): ≥ 20 µM
- Kd (HLA-B*18:01; [6]): ≥ 20 µM
- Kd (HLA-B*08:02; [7]): ≥ 20 µM
- Kd (HLA-B*58:01; [6]): ≥ 20 µM
- Kd (HLA-B*46:01; [6]): ≥ 20 µM
- Kd (HLA-A*24:02; [6]): ≥ 20 µM
- Kd (HLA-B*27:05; [6]): ≥ 20 µM
